The numbers were not newly measured in patent publication US20060110594A1, “Polymer-coated substrates for binding biomolecules and methods of making and using thereof” (priority 2004, published 2006), which cites them from elsewhere.

For this data set the following is noted: isoelectric point, listed property.

B1: Myoglobin: protein immobilized on EMA, 17.6 kDa (protein, UniProt P68082 2-154, looked up)
Myoglobin: GLSDGEWQQVLNVWGKVEADIAGHGQEVLIRLFTGHPETLEKFDKFKHLKTEAEMKASEDLKKHGTVVLTALGGILKKKGHHEAELKPLAQSHATKHKIPIKYLEFISDAIIHVLHSKHPGDFGADAQGAMTKALELFRNDIAAKYKELGFQG
modifications: immobilized on EMA
notes: protein immobilized on EMA, 17.6 kDa
For B1, the pI is 7.2.
